Measured values from patent US20240288416.

Test system: green fluorescent protein (GFP) carrying an ssrA tag at the C-terminus

unfoldase ClpX
controlled translocation through the opened ClpP-nanopore (ionic current traces, ATP present): ClpX-assisted transport of GFP across opened ClpP-nanopore in the presence of ATP
